Consider 33 molecules from PMC10786891, “Massively parallel profiling of RNA-targeting CRISPR-Cas13d”.

The chains are these.
T1: EsCas13d, nuclease-dead (Eubacterium siraeum, UniProt B0MS50, R295A;H300A;R849A;H854A)
T1 sequence: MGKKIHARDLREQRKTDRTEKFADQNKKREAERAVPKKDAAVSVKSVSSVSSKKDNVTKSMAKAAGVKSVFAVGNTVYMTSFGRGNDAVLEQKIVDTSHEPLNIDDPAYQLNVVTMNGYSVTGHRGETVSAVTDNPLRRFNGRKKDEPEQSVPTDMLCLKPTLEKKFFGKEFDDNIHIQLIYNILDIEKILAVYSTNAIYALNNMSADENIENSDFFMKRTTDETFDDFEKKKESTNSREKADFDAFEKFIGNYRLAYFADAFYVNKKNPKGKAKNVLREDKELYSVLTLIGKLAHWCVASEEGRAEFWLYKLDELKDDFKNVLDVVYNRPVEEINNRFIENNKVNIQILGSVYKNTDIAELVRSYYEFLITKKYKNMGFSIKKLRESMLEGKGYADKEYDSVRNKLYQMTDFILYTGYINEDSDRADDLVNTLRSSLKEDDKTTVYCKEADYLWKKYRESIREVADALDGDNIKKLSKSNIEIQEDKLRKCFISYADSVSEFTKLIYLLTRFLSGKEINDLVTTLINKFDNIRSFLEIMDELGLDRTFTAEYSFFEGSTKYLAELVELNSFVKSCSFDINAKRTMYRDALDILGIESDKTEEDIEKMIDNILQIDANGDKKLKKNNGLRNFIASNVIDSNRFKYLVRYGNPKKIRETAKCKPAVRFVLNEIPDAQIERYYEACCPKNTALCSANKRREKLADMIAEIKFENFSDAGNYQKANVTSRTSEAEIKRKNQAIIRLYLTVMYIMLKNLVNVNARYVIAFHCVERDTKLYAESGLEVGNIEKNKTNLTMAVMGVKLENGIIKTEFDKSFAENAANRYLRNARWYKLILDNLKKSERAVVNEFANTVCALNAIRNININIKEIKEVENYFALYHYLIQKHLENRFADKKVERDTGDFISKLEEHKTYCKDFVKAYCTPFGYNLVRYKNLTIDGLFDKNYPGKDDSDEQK

B1: target 1 insA 3' of 17,insG 3' of 7 (mixed)
RNA 1: CACCCGUGCAAAAAUGCAGGGGUCUAAAACUGAGCGGAUAACCUCUCUAUGG
RNA 2: GGGAAUGGAUCCACAUCUACGAAUUCGUACCAUAGAAGAGGUUAUCGCGCUCACCGAGAUCGGAAGAGCACACGU
B2: target 1 C7G,G13U (mixed)
RNA 1: B1 RNA 1
RNA 2: GGGAAUGGAUCCACAUCUACGAAUUCGUACCAUAGAGAUGUUAUGCGCUCACCGAGAUCGGAAGAGCACACGU
B3: target 1 insU 3' of 22,insG 3' of 4 (mixed)
RNA 1: B1 RNA 1
RNA 2: GGGAAUGGAUCCACAUCUACGAAUUCGUACUCAUAGAGAGGUUAUCCGCGUCACCGAGAUCGGAAGAGCACACGU
B4: target 1 U19G,A20U (mixed)
RNA 1: B1 RNA 1
RNA 2: B2 RNA 2 with A32U, U33G, U39G, G45C
B5: target 1 insG 3' of 18,insG 3' of 18 (mixed)
RNA 1: B1 RNA 1
RNA 2: GGGAAUGGAUCCACAUCUACGAAUUCGUACCAUAGGGAGAGGUUAUCCGCUCACCGAGAUCGGAAGAGCACACGU
B6: target 1 insU 3' of 5,insU 3' of 2 (mixed)
RNA 1: B1 RNA 1
RNA 2: GGGAAUGGAUCCACAUCUACGAAUUCGUACCAUAGAGAGGUUAUCCGUCUCUACCGAGAUCGGAAGAGCACACGU
B7: target 1 U11C,C22A (mixed)
RNA 1: B1 RNA 1
RNA 2: B2 RNA 2 with C30A, U39G, U41C, G45C
B8: target 1 C4A,G15A (mixed)
RNA 1: B1 RNA 1
RNA 2: B2 RNA 2 with G37A, U39G, G45C, C48A
B9: target 1 insU 3' of 9,insC 3' of 9 (mixed)
RNA 1: B1 RNA 1
RNA 2: B5 RNA 2 with G36A, A40G, G41U, G42U, U43A, A45C
B10: target 1 U10A,A14G (mixed)
RNA 1: B1 RNA 1
RNA 2: B2 RNA 2 with A38G, U39G, U42A, G45C
B11: target 1 G5U,C21U (mixed)
RNA 1: B1 RNA 1
RNA 2: B2 RNA 2 with C31U, U39G, G45C, G47U
B12: target 1 insA 3' of 8,insG 3' of 2 (mixed)
RNA 1: B1 RNA 1
RNA 2: B6 RNA 2 with C45A, G47C, U48G, U52G
B13: target 1 insA 3' of 12,insU 3' of 1 (mixed)
RNA 1: B1 RNA 1
RNA 2: B6 RNA 2 with U41A, A43U, U44A, C45U, G47C, U48G, U52A, A53U
B14: target 1 insU 3' of 18,insC 3' of 10 (mixed)
RNA 1: B1 RNA 1
RNA 2: B1 RNA 2 with G35U, A36G, A44C, U45A, C46U, G47C
B15: target 1 U3C,U10G (mixed)
RNA 1: B1 RNA 1
RNA 2: B2 RNA 2 with U39G, U42G, G45C, U49C
B16: target 1 insA 3' of 19,insC 3' of 13 (mixed)
RNA 1: B1 RNA 1
RNA 2: B5 RNA 2 with G35A, G37A, A38G, G39A, A40G, G41C
B17: target 1 U11G,A16G (mixed)
RNA 1: B1 RNA 1
RNA 2: B2 RNA 2 with A36G, U39G, U41G, G45C
B18: target 1 U10C,C21A (mixed)
RNA 1: B1 RNA 1
RNA 2: B2 RNA 2 with C31A, U39G, U42C, G45C
B19: target 1 insU 3' of 14,insC 3' of 14 (mixed)
RNA 1: B1 RNA 1
RNA 2: B5 RNA 2 with G36A, G39U, A40C
B20: target 1 C4A,G13A (mixed)
RNA 1: B1 RNA 1
RNA 2: B2 RNA 2 with U39A, G45C, C48A
B21: target 1 complement block 5-12 (mixed)
RNA 1: B1 RNA 1
RNA 2: B2 RNA 2 with U39G, G40C, U41A, U42A, A43U, U44A, C46G, G47C
B22: target 1 complement block 7-10 (mixed)
RNA 1: B1 RNA 1
RNA 2: B2 RNA 2 with U39G, U42A, A43U, U44A
B23: target 1 G5A,U11G (mixed)
RNA 1: B1 RNA 1
RNA 2: B2 RNA 2 with U39G, U41G, G45C, G47A
B24: target 1 insA 3' of 8,insU 3' of 7 (mixed)
RNA 1: B1 RNA 1
RNA 2: B6 RNA 2 with C45A, G47U, U48C, C49G, U50C, C51U, U52C
B25: target 1 insU 3' of 17,insC 3' of 13 (mixed)
RNA 1: B1 RNA 1
RNA 2: B5 RNA 2 with G36U, G37A, A38G, G39A, A40G, G41C
B26: target 1 insC 3' of 22,insU 3' of 12 (mixed)
RNA 1: B1 RNA 1
RNA 2: B3 RNA 2 with U31C, A44U, U45A, C46U, G48C, C49G, G50C
B27: target 1 insU 3' of 21,insA 3' of 17 (mixed)
RNA 1: B1 RNA 1
RNA 2: B5 RNA 2 with A32U, U33A, A34U, G35A, G37A
B28: target 1 insC 3' of 10,insU 3' of 4 (mixed)
RNA 1: B1 RNA 1
RNA 2: B6 RNA 2 with A43C, U44A, C45U, G47C, U48G, C51U, U52C
B29: target 1 G12C,A16G (mixed)
RNA 1: B1 RNA 1
RNA 2: B2 RNA 2 with A36G, U39G, G40C, G45C
B30: target 1 insA 3' of 17,insC 3' of 16 (mixed)
RNA 1: B1 RNA 1
RNA 2: B5 RNA 2 with G36A, G37A, A38C
B31: target 1 insG 3' of 22,insU 3' of 6 (mixed)
RNA 1: B1 RNA 1
RNA 2: B3 RNA 2 with U31G, G48U, C49G, G50C
B32: target 1 U11G (mixed)
RNA 1: B1 RNA 1
RNA 2: B2 RNA 2 with U39G, U41G, G45C
B33: target 1 insU 3' of 21,insU 3' of 7 (mixed)
RNA 1: B1 RNA 1
RNA 2: B1 RNA 2 with A32U, U33A, A34U, G35A, A36G, G47U

Positions count from the first letter of the chain named. Numbers in names are those of the source.

The series addresses T1, EsCas13d, nuclease-dead. Put plainly: crRNA (strand 1, pre-loaded); Mg2+; 40 mM Tris-HCl pH 7.5, 150 mM NaCl, 6 mM MgCl2, 1 mM DTT, 0.1% Tween-20, 0.2 mg/ml BSA; 25 C; 10 min per concentration, then washed. The following applies: tags: His6-TwinStrep-SUMO cleaved; N-terminal SNAP kept (SNAP-Surface 488); label: 3' end held by stalled T7 RNA polymerase.
In turn, B1 had a Kd of 11.5 ± 0.6 nM.

In turn, B2 came in with a Kd of 54 ± 13 nM.

Take B3: the affinity, expressed as Kd, was 22.3 ± 1.5 nM.

As to B4, the Kd was 96 ± 35 nM.

As for B5, the Kd was 48 ± 4 nM.

B6 displayed a Kd of 14.8 ± 1.3 nM.

On to B7, for which the Kd came to 21.3 ± 1.5 nM.

In the case of B8, the Kd amounted to 20.9 ± 1.8 nM.

As for B9, the Kd is 21.5 ± 1.6 nM.

With B10, the equilibrium dissociation constant (Kd) is 12.3 ± 0.5 nM.

For the molecule B11, the Kd amounted to 5.96 ± 0.31 nM.

B12: the Kd worked out at 16.7 ± 0.8 nM.

B13: the Kd turned out to be 37 ± 10 nM.

In turn, B14 displayed a Kd of 65 ± 24 nM.

Regarding B15, binding was put at a Kd of 26 ± 2.7 nM.

Molecule B16 returned a Kd of 35.3 ± 3.3 nM.

The molecule B17 had a Kd of 53 ± 6 nM.

Molecule B18 came in with a Kd of 60 ± 8 nM.

On to B19, for which the Kd came out at 37 ± 4 nM.

Turning to B20, the Kd worked out at 14 ± 4 nM.

B21 showed a Kd of 15.8 ± 1.5 nM.

B22 came in with a Kd of 11.7 ± 0.7 nM.

Molecule B23 came in with a Kd of 51 ± 5 nM.

On to B24, for which the Kd stood at 12.8 ± 0.5 nM.

In the case of B25, binding was characterised by a dissociation constant (Kd) of 44 ± 9 nM.

For B26, the Kd worked out at 16.8 ± 1.2 nM.

B27 displayed a dissociation constant (Kd) of approximately 100 nM.

B28: the Kd came to 12.7 ± 1.1 nM.

B29 showed a Kd of 75 ± 10 nM.

B30: the dissociation constant (Kd) was 11.6 ± 0.7 nM.

On to B31, for which binding was characterised by a dissociation constant (Kd) of 49 ± 7 nM.

Turning to B32, the Kd worked out at 22.4 ± 1.2 nM.

The molecule B33 displayed a Kd of 54 ± 4 nM.
